According to patent US20040098763A1 (published 2004):

Key:
[1] = biological target: T1, Cdc2b (Cdc2bAt) in DB-vector (A. thaliana, UniProt P04386 1-147; P25859 1-309); experiment: yeast two-hybrid (MaV203), X-Gal filter assay for β-galactosidase; AD construct x BD construct
T1 construct: Yeast two-hybrid DB/BD fusion
Experimental: (§1) ⁽¹⁾For each interaction test, yeast strain (MaV203) was transformed first with AD constructs listed in the first row, and then with BD constructs listed in the first column of the table following standard protocol. Three independent colonies from each interaction combination were used in X-Gal filter assay for β-galactosidase activity. The results of X-Gal assays were recorded at 2, 4, and 20 hours (overnight). Color intensity determined by visual inspection: “−” = none; “+” = weak; “++” = moderate; “+++” = strong. ⁽²⁾Faint color was visible after overnight incubation.

[2] = biological target: T2, Cdc2a (Cdc2aAt) in DB-vector (Arabidopsis, UniProt P04386 1-147; P24100 1-294); experiment: as above
T2 construct: Yeast two-hybrid DB/BD fusion; also called Arath;CDKA;1
Experimental: as §1

[3] = biological target: T3, CycD1 (Arath; CycD1; 1) in DB-vector (A. thaliana, UniProt P04386 1-147; P42751 1-339); experiment: as above
T3 construct: Yeast two-hybrid DB/BD fusion
Experimental: as §1

[4] = biological target: T4, CycD2 (Arath; CycD2; 1) in DB-vector (Arabidopsis, UniProt P04386 1-147; P42752 1-361); experiment: as above
T4 construct: Yeast two-hybrid DB/BD fusion; also called cyclin D2
Experimental: as §1

[5] = biological target: T5, CycB2 (Arath; CycB2; 2) in DB-vector (A. thaliana, UniProt P04386 1-147; Q39070 1-429); experiment: yeast two-hybrid, quantification of reporter activity; ICK1 in GAL4-AD vector, partner in DB vector
T5 construct: Yeast two-hybrid DB fusion

[6] = biological target: T6, vector alone (DB-vector without a gene) (UniProt P04386 1-147); experiment: as above
T6 construct: also called Control

[7] = biological target: T7, CycB1 (Arath; CycB1; 1) in DB-vector (A. thaliana, UniProt P04386 1-147; P30183 1-428); experiment: as above
T7 construct: Yeast two-hybrid DB fusion; also called Cyc1At

ATMAP2 in DB-vector = biological target: T8, ATMAP2 in DB-vector (A. thaliana); experiment: as above
T8 construct: Yeast two-hybrid DB fusion; also called MAP kinase

[8] = biological target: T9, CycD3 (Arath; CycD3; 1) in DB-vector (Arabidopsis, UniProt P04386 1-147; P42753 1-376); experiment: as above
T9 construct: Yeast two-hybrid DB/BD fusion; also called cyclin D3

[9] = biological target: T1, Cdc2b (Cdc2bAt) in DB-vector; experiment: as above
PCNAAt in DB-vector = biological target: T10, PCNAAt in DB-vector (Arabidopsis); experiment: as above
T10 construct: Yeast two-hybrid DB/BD fusion; also called Arabidopsis PCNA

[10] = biological target: T11, CycA2 (Arath; CycA2; 2) in DB-vector (A. thaliana, UniProt P04386 1-147; Q147G5 1-436, limits assumed); experiment: as above
T11 construct: Yeast two-hybrid DB fusion

[11] = biological target: T3, CycD1 (Arath; CycD1; 1) in DB-vector; experiment: as above
[12] = biological target: T4, CycD2 (Arath; CycD2; 1) in DB-vector; experiment: as above
[13] = biological target: T2, Cdc2a (Cdc2aAt) in DB-vector; experiment: as above

B1: ICN2 (AD construct) (other, not shown: large carriers)
chain: KKKQRERAHKNPREKKMSERKRELAEEASSTSFSPLKKTKLNDSSDSSPDSHDVIVFAVSSSSVASSAALASDECSVTIGGEESDQSSSISSGCFTSESKEIAKNSSSFGVDLEDHQIETETETSTFITSNFRKETSPVSEGLGETTTEMESSSATKRKQPGVRKTPTAAEIEDLFSELESQDDKKKQFIEKYNFDIVNDEPLEGRYKWDRL
notes: also called ICK4
binding result [1]: no binding | binding result [2]: no binding

B2: CKS1At (AD construct) (other, UniProt O23249 1-87, looked up, not shown: large carriers)
chain: MGQIQYSEKYFDDTFEYRHVVLPPEVAKLLPKNRLLSENEWRAIGVQQSRGWVHYAVHRPEPHIMLFRRPLNYQQQQENQAQNMLVK
binding result [3]: no binding | binding result [4]: no binding

B3: ICK1 in a GAL4-activation domain vector (other, not shown: large carriers)
chain: MVRKYRKAKGIVEAGVSSTYMQLRSRRIVYVRSEKSSSVSVVGDNGVSSSCSGSNEYKKKELIHLEEEDKDGDTETSTYRRGTKRKLFENLREEEKEELSKSMENYSSEFESAVKESLDCCCSGRKTMEETVTAEEEEKAKLMTEMPTESEIEDFFVEAEKQLKEKFKKKYNFDFEKEKPLEGRYEWVKLE
notes: Yeast two-hybrid AD fusion; the GAL4 domain is placed first as in standard vectors
Quantification (yeast two-hybrid reporter activity) [5]: 0.05 | Quantification (yeast two-hybrid reporter activity) [6]: 0 | Quantification (yeast two-hybrid reporter activity) [7]: 0.06 | Quantification (yeast two-hybrid reporter activity) (ATMAP2 in DB-vector): 0 | Quantification (yeast two-hybrid reporter activity) [8]: 22.7 | Quantification (yeast two-hybrid reporter activity) [9]: 0 | Quantification (yeast two-hybrid reporter activity) (PCNAAt in DB-vector): 0 | Quantification (yeast two-hybrid reporter activity) [10]: 0.03 | Quantification (yeast two-hybrid reporter activity) [11]: 3.13 | Quantification (yeast two-hybrid reporter activity) [12]: 14.8 | Quantification (yeast two-hybrid reporter activity) [13]: 2.65 | binding result [1]: no binding

B4: ICN7 (AD construct) (other, not shown: large carriers)
chain: MGKYMKKSKITGDISVMEVSKATAPSPGVRTRAAKTLALKRLNSSAADSALPNDSSCYLQLRSRRLEKPSSLIEPKQPPRVHRSGIKESGSRSRVDSVNSAPVAQSSNEDECFDNFVSVQVSCGENSLGFESRHSTRESTPCNFVEDMEIMVTPGSSTRSMCRATKEYTREQDNVIPTTSEMEEFFAYAEQQQQRLFMEKYNFDIVNDIPLSGRYEWVQVKP
notes: also called ICK6
binding result [1]: no binding

B5: ICN8 (AD construct) (other, not shown: large carriers)
chain: MGKYIRKSKIDGAGAGAGGGGGGGGGGESSIALMDVVSPSSSSSLGVLTRAKSLALQQQQQRCLLQKPSSPSSLPPTSASPNPPSKQKMKKKQQQMNDCGSYLQLRSRRLQKKPPIVVIRSTKRRKQQRRNETCGRNPNPRSNLDSIRGDGSRSDSVSESVVFGKDKDLISEINKDPTFGQNFFDLEEEHTQSFNRTTRESTPCSLIRRPEIMTTPGSSTKLNICVSESNQREDSLSRSHRRRPTTPEMDEFFSGAEEEQQKQFIEKYNFDPVNEQPLPGRFEWTKVDD
notes: Yeast two-hybrid AD fusion; also called ICK7
binding result [1]: no binding

B6: ICN6 (AD construct) (other, not shown: large carriers)
chain: LSPEKTIMSLREMSETKPKRDSEYEGSNIKRMRLDDDDDVLRSPTRTLSSSSSSSLAYSVSDSGGFCSVALSEEEDDHLSSSISSGCSSSETNEIATRLPFSDLEAHEISETEISTLLTNNFRKQGISSSENLGETAEMDSATTEMRDQRKTEKKKKMEKSPTQAELDDFFSAAERYEQKRFTEKYNYDIVNDTPLEGRYQWVSLKP
notes: also called ICK5
binding result [1]: no binding | binding result [2]: no binding

B7: ICDK of Chenopodium rubrum (AD construct) (other, not shown: large carriers)
chain: MAAAATPTSSPAKKIKKVSKSSYNIPQLRSRRKNLSAPENFAELETTPLEVAAVVEEEEVANCSSSEVITTARSDFPPSCCSSNYDQLSSSEPEVVKDDDGLGNRTADPEVESGEASSKQKESHRTEAREATKLDDQDYPATKSTVQIKMPSDSEIEEFFAVAEKDLQKRFSEKYNFDIVKDVPLKGRYDWVPINP
notes: Yeast two-hybrid AD fusion; also called ICKCr; Chenopodium ICDK
binding result [1]: no binding | binding result [2]: no binding

B8: ICK2 (AD construct) (other, not shown: large carriers)
chain: MAAVRRRERDVVEENGVTTTTVKRRKMEEEVDLVESRIILSPCVQATNRGGIVARNSAGASETSVVIVRRRDSPPVEEQCQIEEEDSSVSCCSTSEEKSKRRIEFVDLEENNGDDRETETSWIYDDLNKSEESMNMDSSSVAVEDVESRRRLRKSLHETVKEAELEDFFQVAEKDLRNKLLECSMKYNFDFEKDEPLGGGRYEWVKLNP
binding result [1]: no binding
